{"source": "patent US20220062341A1", "about": "(KIRIN, published 2022)", "binders": {"B1": {"name": "modified TCR consisting of β12 and α10 (TCR)", "TCR alpha": "IPEDTFFPSPESSCDVKLVEKSFETDTNLNFQNLSVIGFRILLLKVAGFNLLMTLRLWSS", "TCR beta": "AKPVTQIVSAEAWGRADCGFTSESYQQGVLSATILYEILLGKATLYAVLVSALVLMAMVKRKDSRG"}, "B2": {"name": "modified TCR consisting of β10 and α10 (TCR)", "TCR alpha": "B1 TCR alpha", "TCR beta": "YGLSENDEWTQDRAKPVTQIVSAEAWGRADCGFTSESYQQGVLSATILYEILLGKATLYAVLVSALVLMAMVKRKDSRG"}, "B3": {"name": "modified TCR consisting of β11 and α10 (TCR)", "TCR alpha": "B1 TCR alpha", "TCR beta": "EWTQDRAKPVTQIVSAEAWGRADCGFTSESYQQGVLSATILYEILLGKATLYAVLVSALVLMAMVKRKDSRG"}, "B4": {"name": "modified TCR consisting of β11 and α4 (TCR)", "TCR alpha": "DVYITDKTVLDMRSMDFKSNSAVAWSNKSDFACANAFNNSIIPEDTFFPSPESSCDVKLVEKSFETDTNLNFQNLSVIGFRILLLKVAGFNLLMTLRLWSS", "TCR beta": "B3 TCR beta"}, "B5": {"name": "modified TCR consisting of β11 and α5 (TCR)", "TCR alpha": "LDMRSMDFKSNSAVAWSNKSDFACANAFNNSIIPEDTFFPSPESSCDVKLVEKSFETDTNLNFQNLSVIGFRILLLKVAGFNLLMTLRLWSS", "TCR beta": "B3 TCR beta"}, "B6": {"name": "modified TCR consisting of β11 and α8 (TCR)", "TCR alpha": "CANAFNNSIIPEDTFFPSPESSCDVKLVEKSFETDTNLNFQNLSVIGFRILLLKVAGFNLLMTLRLWSS", "TCR beta": "B3 TCR beta"}, "B7": {"name": "modified TCR consisting of β11 and α6 (TCR)", "TCR alpha": "KSNSAVAWSNKSDFACANAFNNSIIPEDTFFPSPESSCDVKLVEKSFETDTNLNFQNLSVIGFRILLLKVAGFNLLMTLRLWSS", "TCR beta": "B3 TCR beta"}, "B8": {"name": "modified TCR consisting of β11 and α7 (TCR)", "TCR alpha": "SNKSDFACANAFNNSIIPEDTFFPSPESSCDVKLVEKSFETDTNLNFQNLSVIGFRILLLKVAGFNLLMTLRLWSS", "TCR beta": "B3 TCR beta"}, "B9": {"name": "modified TCR consisting of β12 and α4 (TCR)", "TCR alpha": "B4 TCR alpha", "TCR beta": "B1 TCR beta"}, "B10": {"name": "modified TCR consisting of β11 and α9 (TCR)", "TCR alpha": "FNNSIIPEDTFFPSPESSCDVKLVEKSFETDTNLNFQNLSVIGFRILLLKVAGFNLLMTLRLWSS", "TCR beta": "B3 TCR beta"}, "B11": {"name": "modified TCR consisting of β10 and α3 (TCR)", "TCR alpha": "NVSQSKDSDVYITDKTVLDMRSMDFKSNSAVAWSNKSDFACANAFNNSIIPEDTFFPSPESSCDVKLVEKSFETDTNLNFQNLSVIGFRILLLKVAGFNLLMTLRLWSS", "TCR beta": "B2 TCR beta"}, "B12": {"name": "modified TCR consisting of β11 and α3 (TCR)", "TCR alpha": "B11 TCR alpha", "TCR beta": "B3 TCR beta"}, "B13": {"name": "modified TCR consisting of β10 and α4 (TCR)", "TCR alpha": "B4 TCR alpha", "TCR beta": "B2 TCR beta"}, "B14": {"name": "modified TCR consisting of β10 and α5 (TCR)", "TCR alpha": "B5 TCR alpha", "TCR beta": "B2 TCR beta"}, "B15": {"name": "modified TCR consisting of β10 and α6 (TCR)", "TCR alpha": "B7 TCR alpha", "TCR beta": "B2 TCR beta"}, "B16": {"name": "modified TCR consisting of β10 and α9 (TCR)", "TCR alpha": "B10 TCR alpha", "TCR beta": "B2 TCR beta"}, "B17": {"name": "modified TCR consisting of β10 and α8 (TCR)", "TCR alpha": "B6 TCR alpha", "TCR beta": "B2 TCR beta"}, "B18": {"name": "modified TCR consisting of β10 and α7 (TCR)", "TCR alpha": "B8 TCR alpha", "TCR beta": "B2 TCR beta"}, "B19": {"name": "modified TCR consisting of β12 and α3 (TCR)", "TCR alpha": "B11 TCR alpha", "TCR beta": "B1 TCR beta"}, "B20": {"name": "modified TCR consisting of β12 and α5 (TCR)", "TCR alpha": "B5 TCR alpha", "TCR beta": "B1 TCR beta"}, "B21": {"name": "modified TCR consisting of β12 and α9 (TCR)", "TCR alpha": "B10 TCR alpha", "TCR beta": "B1 TCR beta"}, "B22": {"name": "modified TCR consisting of β12 and α8 (TCR)", "TCR alpha": "B6 TCR alpha", "TCR beta": "B1 TCR beta"}, "B23": {"name": "modified TCR consisting of β12 and α7 (TCR)", "TCR alpha": "B8 TCR alpha", "TCR beta": "B1 TCR beta"}, "B24": {"name": "modified TCR consisting of β12 and α6 (TCR)", "TCR alpha": "B7 TCR alpha", "TCR beta": "B1 TCR beta"}, "B25": {"name": "modified TCR ba11 (TCR)", "TCR alpha": "SVCLFTDFDSQTNVSQSKDSDVYITDKTVLDMRSMDFKSNSAVAWSNKSDFACANAFNNSIIPEDTFFPSPESSCDVKLVEKSFETDTNLNFQNLSVIGFRILLLKVAGFNLLMTLRLWSS", "TCR beta": "ATLVCLATGFYPDHVELSWWVNGKEVHSGVSTDPQPLKEQPALNDSRYCLSSRLRVSATFWQNPRNHFRCQVQFYGLSENDEWTQDRAKPVTQIVSAEAWGRADCGFTSESYQQGVLSATILYEILLGKATLYAVLVSALVLMAMVKRKDSRG"}, "B26": {"name": "modified TCR ba13 (TCR)", "TCR alpha": "B7 TCR alpha", "TCR beta": "B25 TCR beta"}, "B27": {"name": "modified TCR ba12 (TCR)", "TCR alpha": "B4 TCR alpha", "TCR beta": "B25 TCR beta"}, "B28": {"name": "modified TCR ba10 (TCR)", "TCR alpha": "B1 TCR alpha", "TCR beta": "EDLKNVFPPEVAVFEPSEAEISHTQKATLVCLATGFYPDHVELSWWVNGKEVHSGVSTDPQPLKEQPALNDSRYCLSSRLRVSATFWQNPRNHFRCQVQFYGLSENDEWTQDRAKPVTQIVSAEAWGRADCGFTSESYQQGVLSATILYEILLGKATLYAVLVSALVLMAMVKRKDSRG"}, "B29": {"name": "modified TCR ba14 (TCR)", "TCR alpha": "B1 TCR alpha", "TCR beta": "B25 TCR beta"}}, "data": [{"molecular_target": "CD3 subunits (CD3E, CD3G, CD3D, CD3Z) (human, UniProt P07766 23-207; P09693 23-182; P04234 22-171; P20963 22-164)", "sequence (P07766 23-207, chain 1 of 4)": "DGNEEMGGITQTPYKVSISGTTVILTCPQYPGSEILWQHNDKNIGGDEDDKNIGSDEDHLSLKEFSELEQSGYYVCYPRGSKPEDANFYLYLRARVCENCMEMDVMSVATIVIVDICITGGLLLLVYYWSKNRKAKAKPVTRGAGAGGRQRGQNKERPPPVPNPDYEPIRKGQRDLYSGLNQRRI", "sequence (P09693 23-182, chain 2 of 4)": "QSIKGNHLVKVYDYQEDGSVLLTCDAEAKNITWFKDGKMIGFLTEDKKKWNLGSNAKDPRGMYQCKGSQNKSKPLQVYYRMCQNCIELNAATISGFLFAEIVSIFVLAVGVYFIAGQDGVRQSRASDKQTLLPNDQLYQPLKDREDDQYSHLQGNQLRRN", "sequence (P04234 22-171, chain 3 of 4)": "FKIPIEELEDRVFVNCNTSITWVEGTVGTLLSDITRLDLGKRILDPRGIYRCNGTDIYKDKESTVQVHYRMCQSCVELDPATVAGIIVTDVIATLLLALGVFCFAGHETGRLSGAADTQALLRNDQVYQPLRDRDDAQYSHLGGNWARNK", "sequence (P20963 22-164, chain 4 of 4)": "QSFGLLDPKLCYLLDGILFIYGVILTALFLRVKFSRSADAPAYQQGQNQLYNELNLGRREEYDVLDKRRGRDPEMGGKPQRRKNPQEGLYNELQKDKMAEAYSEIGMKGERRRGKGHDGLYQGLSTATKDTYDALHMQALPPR", "assay": "cell-based or functional assay", "units": {"CD3-recruiting activity (CD3-positive proportion, N=3), CD3-stably expressing 293T cells": "%"}, "values": [{"binder": "B1", "CD3-recruiting activity (CD3-positive proportion, N=3), CD3-stably expressing 293T cells": "≥ 20"}, {"binder": "B2", "CD3-recruiting activity (CD3-positive proportion, N=3), CD3-stably expressing 293T cells": "≥ 20"}, {"binder": "B3", "CD3-recruiting activity (CD3-positive proportion, N=3), CD3-stably expressing 293T cells": "≥ 20"}, {"binder": "B4", "CD3-recruiting activity (CD3-positive proportion, N=3), CD3-stably expressing 293T cells": "≥ 20"}, {"binder": "B5", "CD3-recruiting activity (CD3-positive proportion, N=3), CD3-stably expressing 293T cells": "≥ 20"}, {"binder": "B6", "CD3-recruiting activity (CD3-positive proportion, N=3), CD3-stably expressing 293T cells": "≥ 20"}, {"binder": "B7", "CD3-recruiting activity (CD3-positive proportion, N=3), CD3-stably expressing 293T cells": "≥ 20"}, {"binder": "B8", "CD3-recruiting activity (CD3-positive proportion, N=3), CD3-stably expressing 293T cells": "≥ 20"}, {"binder": "B9", "CD3-recruiting activity (CD3-positive proportion, N=3), CD3-stably expressing 293T cells": "≥ 20"}, {"binder": "B10", "CD3-recruiting activity (CD3-positive proportion, N=3), CD3-stably expressing 293T cells": "≥ 20"}, {"binder": "B11", "CD3-recruiting activity (CD3-positive proportion, N=3), CD3-stably expressing 293T cells": "≥ 20"}, {"binder": "B12", "CD3-recruiting activity (CD3-positive proportion, N=3), CD3-stably expressing 293T cells": "≥ 20"}, {"binder": "B13", "CD3-recruiting activity (CD3-positive proportion, N=3), CD3-stably expressing 293T cells": "≥ 20"}, {"binder": "B14", "CD3-recruiting activity (CD3-positive proportion, N=3), CD3-stably expressing 293T cells": "≥ 20"}, {"binder": "B15", "CD3-recruiting activity (CD3-positive proportion, N=3), CD3-stably expressing 293T cells": "≥ 20"}, {"binder": "B16", "CD3-recruiting activity (CD3-positive proportion, N=3), CD3-stably expressing 293T cells": "≥ 20"}, {"binder": "B17", "CD3-recruiting activity (CD3-positive proportion, N=3), CD3-stably expressing 293T cells": "≥ 20"}, {"binder": "B18", "CD3-recruiting activity (CD3-positive proportion, N=3), CD3-stably expressing 293T cells": "≥ 20"}, {"binder": "B19", "CD3-recruiting activity (CD3-positive proportion, N=3), CD3-stably expressing 293T cells": "≥ 20"}, {"binder": "B20", "CD3-recruiting activity (CD3-positive proportion, N=3), CD3-stably expressing 293T cells": "≥ 20"}, {"binder": "B21", "CD3-recruiting activity (CD3-positive proportion, N=3), CD3-stably expressing 293T cells": "≥ 20"}, {"binder": "B22", "CD3-recruiting activity (CD3-positive proportion, N=3), CD3-stably expressing 293T cells": "≥ 20"}, {"binder": "B23", "CD3-recruiting activity (CD3-positive proportion, N=3), CD3-stably expressing 293T cells": "≥ 20"}, {"binder": "B24", "CD3-recruiting activity (CD3-positive proportion, N=3), CD3-stably expressing 293T cells": "≥ 20"}]}, {"molecular_target": "CD3E (human, UniProt P07766 23-207)", "sequence (P07766 23-207)": "as the sequence (P07766 23-207, chain 1 of 4) above", "assay": "cell-based or functional assay", "units": {"CD3E-positive proportion [%] (Avg, n = 2), CD3-stably expressing 293T cells": "%"}, "values": [{"binder": "B25", "CD3E-positive proportion [%] (Avg, n = 2), CD3-stably expressing 293T cells": 83.2}, {"binder": "B26", "CD3E-positive proportion [%] (Avg, n = 2), CD3-stably expressing 293T cells": 40.4}, {"binder": "B27", "CD3E-positive proportion [%] (Avg, n = 2), CD3-stably expressing 293T cells": 51}, {"binder": "B28", "CD3E-positive proportion [%] (Avg, n = 2), CD3-stably expressing 293T cells": 86.5}, {"binder": "B29", "CD3E-positive proportion [%] (Avg, n = 2), CD3-stably expressing 293T cells": 46.4}]}]}
